These results are taken from the Human Domainome abundance scans (Beltran et al. 2025).

First the molecules themselves.
B1: Far upstream element-binding protein 3, residues 75 to 150; numbered along this chain, Q96I24 (parent)
chain: RTVITEEFKVPDKMVGFIIGRGGEQISRIQAESGCKIQIASESSGIPERPCVLTGTPESIEQAKRLLGQIVDRCRN

± gives the uncertainty stated by the source.

In this data set the parent is B1. As to the kind of experiment: abundance fitness (aPCA) (normalised: wild type 0, dead -1); higher = more abundant; growth selection in yeast, the domain comes from the species named. The note with it: Homo sapiens.
For the variant RTVITEEFLVPDKMVGFIIGRGGEQISRIQAESGCKIQIASESSGIPERPCVLTGTPESIEQAKRLLGQIVDRCRN [K9L], the abundance fitness is -0.021 ± 0.031.

For RTVITEEFCVPDKMVGFIIGRGGEQISRIQAESGCKIQIASESSGIPERPCVLTGTPESIEQAKRLLGQIVDRCRN [K9C], the abundance fitness was -0.057 ± 0.041.

As to RTVITEEFFVPDKMVGFIIGRGGEQISRIQAESGCKIQIASESSGIPERPCVLTGTPESIEQAKRLLGQIVDRCRN [K9F], the abundance fitness is -0.031 ± 0.056.

Take RTVITEEFDVPDKMVGFIIGRGGEQISRIQAESGCKIQIASESSGIPERPCVLTGTPESIEQAKRLLGQIVDRCRN [K9D]: the abundance fitness was -0.129 ± 0.044.

In the case of RTVITEEFMVPDKMVGFIIGRGGEQISRIQAESGCKIQIASESSGIPERPCVLTGTPESIEQAKRLLGQIVDRCRN [K9M], the abundance fitness was -0.016 ± 0.041.

On to RTVITEEFNVPDKMVGFIIGRGGEQISRIQAESGCKIQIASESSGIPERPCVLTGTPESIEQAKRLLGQIVDRCRN [K9N], for which the abundance fitness is -0.109 ± 0.063.

Turning to RTVITEEFTVPDKMVGFIIGRGGEQISRIQAESGCKIQIASESSGIPERPCVLTGTPESIEQAKRLLGQIVDRCRN [K9T], the abundance fitness is -0.057 ± 0.038.

For the variant RTVITEEFSVPDKMVGFIIGRGGEQISRIQAESGCKIQIASESSGIPERPCVLTGTPESIEQAKRLLGQIVDRCRN [K9S], the abundance fitness was 0.025 ± 0.033.

For the variant RTVITEEFHVPDKMVGFIIGRGGEQISRIQAESGCKIQIASESSGIPERPCVLTGTPESIEQAKRLLGQIVDRCRN [K9H], the abundance fitness was 0.012 ± 0.07.

As for RTVITEEFGVPDKMVGFIIGRGGEQISRIQAESGCKIQIASESSGIPERPCVLTGTPESIEQAKRLLGQIVDRCRN [K9G], the abundance fitness is -0.006 ± 0.026.

RTVITEEFIVPDKMVGFIIGRGGEQISRIQAESGCKIQIASESSGIPERPCVLTGTPESIEQAKRLLGQIVDRCRN [K9I]: the abundance fitness was -0.106 ± 0.059.

In the case of RTVITEEFQVPDKMVGFIIGRGGEQISRIQAESGCKIQIASESSGIPERPCVLTGTPESIEQAKRLLGQIVDRCRN [K9Q], the abundance fitness is -0.007 ± 0.038.

Regarding RTVITEEFRVPDKMVGFIIGRGGEQISRIQAESGCKIQIASESSGIPERPCVLTGTPESIEQAKRLLGQIVDRCRN [K9R], the abundance fitness is -0.09 ± 0.027.

Consider RTVITEEFEVPDKMVGFIIGRGGEQISRIQAESGCKIQIASESSGIPERPCVLTGTPESIEQAKRLLGQIVDRCRN [K9E], for which the abundance fitness is -0.044 ± 0.034.

For RTVITEEFAVPDKMVGFIIGRGGEQISRIQAESGCKIQIASESSGIPERPCVLTGTPESIEQAKRLLGQIVDRCRN [K9A], the abundance fitness is -0.006 ± 0.031.

Consider RTVITCEFKVPDKMVGFIIGRGGEQISRIQAESGCKIQIASESSGIPERPCVLTGTPESIEQAKRLLGQIVDRCRN [E6C], for which the abundance fitness is -0.022 ± 0.041.

Consider RTVITFEFKVPDKMVGFIIGRGGEQISRIQAESGCKIQIASESSGIPERPCVLTGTPESIEQAKRLLGQIVDRCRN [E6F], for which the abundance fitness is -0.16 ± 0.056.

Consider RTVITREFKVPDKMVGFIIGRGGEQISRIQAESGCKIQIASESSGIPERPCVLTGTPESIEQAKRLLGQIVDRCRN [E6R], for which the abundance fitness is -0.099 ± 0.028.

As for RTVITYEFKVPDKMVGFIIGRGGEQISRIQAESGCKIQIASESSGIPERPCVLTGTPESIEQAKRLLGQIVDRCRN [E6Y], the abundance fitness is -0.145 ± 0.054.

Turning to RTVITAEFKVPDKMVGFIIGRGGEQISRIQAESGCKIQIASESSGIPERPCVLTGTPESIEQAKRLLGQIVDRCRN [E6A], the abundance fitness was -0.067 ± 0.03.

Consider RTVITWEFKVPDKMVGFIIGRGGEQISRIQAESGCKIQIASESSGIPERPCVLTGTPESIEQAKRLLGQIVDRCRN [E6W], for which the abundance fitness was -0.375 ± 0.033.

In the case of RTVITVEFKVPDKMVGFIIGRGGEQISRIQAESGCKIQIASESSGIPERPCVLTGTPESIEQAKRLLGQIVDRCRN [E6V], the abundance fitness was -0.051 ± 0.029.

Regarding RTVITTEFKVPDKMVGFIIGRGGEQISRIQAESGCKIQIASESSGIPERPCVLTGTPESIEQAKRLLGQIVDRCRN [E6T], the abundance fitness was -0.06 ± 0.039.

Turning to RTVITGEFKVPDKMVGFIIGRGGEQISRIQAESGCKIQIASESSGIPERPCVLTGTPESIEQAKRLLGQIVDRCRN [E6G], the abundance fitness was -0.19 ± 0.026.

For RTVITPEFKVPDKMVGFIIGRGGEQISRIQAESGCKIQIASESSGIPERPCVLTGTPESIEQAKRLLGQIVDRCRN [E6P], the abundance fitness was -0.807 ± 0.054.

As for RTVITDEFKVPDKMVGFIIGRGGEQISRIQAESGCKIQIASESSGIPERPCVLTGTPESIEQAKRLLGQIVDRCRN [E6D], the abundance fitness was -0.084 ± 0.047.

Turning to RTVITSEFKVPDKMVGFIIGRGGEQISRIQAESGCKIQIASESSGIPERPCVLTGTPESIEQAKRLLGQIVDRCRN [E6S], the abundance fitness is -0.042 ± 0.032.

For RTVITKEFKVPDKMVGFIIGRGGEQISRIQAESGCKIQIASESSGIPERPCVLTGTPESIEQAKRLLGQIVDRCRN [E6K], the abundance fitness was -0.018 ± 0.043.

For the variant RTVITNEFKVPDKMVGFIIGRGGEQISRIQAESGCKIQIASESSGIPERPCVLTGTPESIEQAKRLLGQIVDRCRN [E6N], the abundance fitness is -0.242 ± 0.067.

In the case of RTVITHEFKVPDKMVGFIIGRGGEQISRIQAESGCKIQIASESSGIPERPCVLTGTPESIEQAKRLLGQIVDRCRN [E6H], the abundance fitness was -0.09 ± 0.063.

As to RTVITMEFKVPDKMVGFIIGRGGEQISRIQAESGCKIQIASESSGIPERPCVLTGTPESIEQAKRLLGQIVDRCRN [E6M], the abundance fitness is -0.103 ± 0.039.

With RTVITQEFKVPDKMVGFIIGRGGEQISRIQAESGCKIQIASESSGIPERPCVLTGTPESIEQAKRLLGQIVDRCRN [E6Q], the abundance fitness is -0.068 ± 0.041.

RTVITIEFKVPDKMVGFIIGRGGEQISRIQAESGCKIQIASESSGIPERPCVLTGTPESIEQAKRLLGQIVDRCRN [E6I]: the abundance fitness was -0.111 ± 0.057.

In the case of RTVITLEFKVPDKMVGFIIGRGGEQISRIQAESGCKIQIASESSGIPERPCVLTGTPESIEQAKRLLGQIVDRCRN [E6L], the abundance fitness is -0.235 ± 0.03.

Turning to RTVIWEEFKVPDKMVGFIIGRGGEQISRIQAESGCKIQIASESSGIPERPCVLTGTPESIEQAKRLLGQIVDRCRN [T5W], the abundance fitness is -0.192 ± 0.037.

Take RTVIYEEFKVPDKMVGFIIGRGGEQISRIQAESGCKIQIASESSGIPERPCVLTGTPESIEQAKRLLGQIVDRCRN [T5Y]: the abundance fitness was -0.164 ± 0.08.
